Patent US20030148956A1 (PROCTER AND GAMBLE, published 2003)
Ends that are not written are not given here.

Columns and labels:
[1] = target: corticotropin releasing factor 1 receptor; experiment: cell-based or functional assay
[2] = target: T1, corticotropin releasing factor 2 receptor; experiment: cell-based or functional assay
T1 sequence (Q13324 whole entry, species assumed, looked up): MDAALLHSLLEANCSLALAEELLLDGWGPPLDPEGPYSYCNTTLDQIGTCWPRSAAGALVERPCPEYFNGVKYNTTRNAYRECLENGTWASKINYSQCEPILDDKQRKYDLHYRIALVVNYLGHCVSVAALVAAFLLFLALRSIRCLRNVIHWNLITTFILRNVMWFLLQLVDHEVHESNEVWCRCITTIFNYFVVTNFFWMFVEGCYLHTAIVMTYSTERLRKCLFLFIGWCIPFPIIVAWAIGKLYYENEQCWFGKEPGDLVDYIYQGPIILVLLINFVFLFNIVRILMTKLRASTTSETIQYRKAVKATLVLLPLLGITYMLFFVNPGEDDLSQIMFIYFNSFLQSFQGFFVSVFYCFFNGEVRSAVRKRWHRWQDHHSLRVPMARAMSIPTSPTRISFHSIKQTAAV

Binder | CRF1R EC50 [1] | CRF1R Emax % [1] | CRF2R EC50 [2] | CRF2R Emax % [2]
ZGPPISIDLPQILLRKMIEIEKQEKEKQQAANNARLLARI (C-terminal amide) [SEQ ID NO 285] | 1000 nM | 11.1% | 13.9 nM | 97.1%
ZGPPISIDLPQILLRKVIEIEKQEKEKQQAANNARLLARI (C-terminal amide) [SEQ ID NO 294] | 1000 nM | 13.6% | 100 nM | 100%
ZGPPISIDLPIILLRKMIEIEKQEKEKQQAANNARLLARI (C-terminal amide) [SEQ ID NO 290] | 1000 nM | 6.4% | 100 nM | 100%
ZGPPISIDLPYQLLRKVIEIEKQEKEKQQAANNARLLARI (C-terminal amide) [SEQ ID NO 286] | 1000 nM | 19.2% | 13.5 nM | 92.5%
ZGPPISIDLPIILLRKVIEIEKQEKEKQQAANNARLLARI (C-terminal amide) [SEQ ID NO 295] | 1000 nM | 5.3% | 55 nM | 67.6%
ZGPPISIDLPYWLLRKMIEIEKQEKEKQQAANNARLLARI (C-terminal amide) [SEQ ID NO 289] | 1000 nM | 69.5% | 12.2 nM | 97.3%
HHHHHHIVLSLDVPIGLLQILLEQARARAAREQATTNARILARN-NH2 [SEQ ID NO 296] | 100 nM | 4% | 6.66 nM | 65%
ZGPPISIDLPYQLLRKMIEIEKQEKEKQQAANNARLLAR (C-terminal amide) [SEQ ID NO 287] | 1000 nM |  | 11.3 nM | 100%
ZGPPISIDLPYQLLRKMIEIEKQEKEKQQAANNARLLAR (C-terminal amide) [SEQ ID NO 288] | 838 nM |  | 14.7 nM | 100%
ZGPPISIDLPTWLLRKVIEIEKQEKEKQQAANNRLLLDTI (C-terminal amide) [SEQ ID NO 284] | 1000 nM | 27.7% | 100 nM | 100%
ZGPPISIDLPQILLRKVIEIEKQEKEKQQAANNALLLATI (C-terminal amide) [SEQ ID NO 299] | 1000 nM | 10.2% | 46.4 nM | 71.5%
ZGPPISIDLPQILLRKVIEIEKQEKEKQQAANNRLLLDTI (C-terminal amide) [SEQ ID NO 293] | 520 nM | 95.3% | 40.3 nM | 87%
ZGPPISIDLPTWLLRKMIEIEKQEKEKQQAANNARLLARI (C-terminal amide) [SEQ ID NO 292] | 1000 nM | 7% | 100 nM | 86.1%
ZGPPISIDLPTWLLRKVIEIEKQEKEKQQAANNARLLARI (C-terminal amide) [SEQ ID NO 291] | 1000 nM | 4.75% | 100 nM | 63.8%
ZGPPISIDLPIFLLRKMIEIEKQEKEKQQAANNALLLATI (C-terminal amide) [SEQ ID NO 298] | 1000 nM | 20.1% | 82 nM | 98.8%
ZGPPISIDLPQALLRKMIEIEKQEKEKQQAANNRLLLDTI (not fully specified; C-terminal amide) [SEQ ID NO 302] | 366 nM | 100% | 36.2 nM | 100%
ZGPPISIDLPVALLRKMIEIEKQEKEKQQAANNRLLLDTI (not fully specified; C-terminal amide) [SEQ ID NO 305] | 1000 nM | 59.5% | 35.5 nM | 95.2%
ZGPPISIDLPIILLRKVIEIEKQEKEKQQAANNRLLLDTI (C-terminal amide) [SEQ ID NO 297] | 1000 nM | 27.2% | 100 nM | 88.3%
ZGPPISIDLPIALLRKMIEIEKQEKEKQQAANNRLLLDTI (not fully specified; C-terminal amide) [SEQ ID NO 306] | 608 nM | 97.7% | 27.6 nM | 100%
ZGPPISIDLPAALLRKMIEIEKQEKEKQQAANNRLLLDTI (not fully specified; C-terminal amide) [SEQ ID NO 303] | 582 nM | 100% | 27.2 nM | 100%
ZGPPISIDLPHALLRKMIEIEKQEKEKQQAANNRLLLDTI (not fully specified; C-terminal amide) [SEQ ID NO 304] | 116 nM | 100% | 19.3 nM | 92.5%
ZGPPISIDLPTALLRKMIEIEKQEKEKQQAANNRLLLDTI (not fully specified; C-terminal amide) [SEQ ID NO 301] | 690 nM | 84.1% | 50.5 nM | 88.4%
IVLSLDVPIGLLQKVIEIEKQEKEKQQATTNARILARV-NH2 [SEQ ID NO 300] | 1000 nM | 7.95% | 17.1 nM | 100%

More lines, now with the values ahead:

CRF1R EC50 [1] | CRF1R Emax % [1] | CRF2R EC50 [2] | CRF2R Emax % [2] | Binder
718 nM | 68.8% | 19.1 nM | 100% | ZGPPISIDLPLQLLRKVIEIEKQEKEKQQATTNARILARV (C-terminal amide) [SEQ ID NO 320]
454 nM | 100% | 9.35 nM | 81.7% | ZGPPISIDLPYHLLRKMIEIEKQEKEKQQAANNALLLAT (C-terminal amide) [SEQ ID NO 315]
978 nM | 82.4% | 10.3 nM | 99.8% | ZGPPISIDLPYHLLRKMIEIEKQEKEKQQAANNALLLDTI (C-terminal amide) [SEQ ID NO 314]
1000 nM | 45.3% | 8.7 nM | 87.5% | ZGPPISIDLPYWLLRKMIEIEKQEKEKQQAANNALLLDTI (C-terminal amide) [SEQ ID NO 310]
108 nM | 96.3% | 5.55 nM | 99.9% | ZGPPISIDLPYALLRKMIEIEKQEKEKQQAANNRLLLDTI (not fully specified; C-terminal amide) [SEQ ID NO 309]
106 nM | 88.3% | 8.5 nM | 95% | ZGPPISIDLPFFLLRKMIEIEKQEKEKQQAANNALLLATI (C-terminal amide) [SEQ ID NO 319]
134 nM | 92.8% | 9.95 nM | 95.4% | ZGPPISIDLPFFLLRKMIEIEKQEKEKQQAANNALLLDTI (C-terminal amide) [SEQ ID NO 318]
222 nM | 92.3% | 10.2 nM | 94.5% | ZGPPISIDLPFFLLRKVIEIEKQEKEKQQAANNALLLDTI (C-terminal amide) [SEQ ID NO 316]
78.4 nM | 92.7% | 5.82 nM | 96.5% | ZGPPISIDLPFALLRKMIEIEKQEKEKQQAANNRLLLDTI (not fully specified; C-terminal amide) [SEQ ID NO 307]
63.5 nM | 100% | 3.3 nM | 72.8% | ZGPPISIDLPLALLRKMIEIEKQEKEKQQAANNRLLLDTI (not fully specified; C-terminal amide) [SEQ ID NO 308]
188 nM | 100% | 9.3 nM | 88.3% | ZGPPISIDLPFFLLRKVIEIEKQEKEKQQAANNALLLATI (C-terminal amide) [SEQ ID NO 317]
1000 nM | 29.7% | 11.7 nM | 100% | ZGPPISIDLPYWLLRKVIEIEKQEKEKQQAANNALLLDTI (C-terminal amide) [SEQ ID NO 311]
704 nM | 87.1% | 11.1 nM | 95% | ZGPPISIDLPYHLLRKVIEIEKQEKEKQQAANNALLLATI (C-terminal amide) [SEQ ID NO 313]
870 nM | 62% | 14.1 nM | 95% | ZGPPISIDLPYHLLRKVIEIEKQEKEKQQAANNALLLDTI (C-terminal amide) [SEQ ID NO 312]
